Source: publication PMC5389854, “Functional analysis of the GmESR1 gene associated with soybean regeneration”

Target: GmESR1 (Glycine max cv. Dongnong 50, UniProt K7K6B8 5-391)
Test: EMSA; EMSA as in Kass et al. (2000); buffer, salt, pH and temperature not stated
Conditions: protein: recombinant; tags: His (pET-29b); label: digoxigenin-ddUTP; blunt

Chain of GmESR1 (K7K6B8 entry or part of it): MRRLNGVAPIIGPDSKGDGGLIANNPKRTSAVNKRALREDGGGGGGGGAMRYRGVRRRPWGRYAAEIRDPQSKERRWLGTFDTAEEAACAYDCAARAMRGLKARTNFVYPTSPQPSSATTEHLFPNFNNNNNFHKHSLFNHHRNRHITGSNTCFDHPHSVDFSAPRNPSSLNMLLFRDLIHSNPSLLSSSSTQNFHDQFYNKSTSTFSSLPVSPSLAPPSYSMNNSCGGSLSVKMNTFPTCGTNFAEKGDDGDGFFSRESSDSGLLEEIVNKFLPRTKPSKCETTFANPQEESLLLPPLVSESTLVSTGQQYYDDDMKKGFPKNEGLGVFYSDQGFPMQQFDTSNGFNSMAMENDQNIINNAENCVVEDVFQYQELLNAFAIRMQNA

B1: mGCC-box probe (dsDNA)
DNA 1: ATCCATAAGATCCTCCACTAAAATAAGACCGATCAA
DNA 2: TTGATCGGTCTTATTTTAGTGGAGGATCTTATGGAT
- binding result: no binding
